Paper PMC2742894, “Crystal Structure of the N-Acetylmannosamine Kinase Domain of GNE” (PLoS ONE, 2009)

Molecular target: the molecule itself
Assay: SEC; Superdex-200 10/300; GNE kinase domain at 6 mg per mL in 20 mM HEPES pH 7.5, 500 mM NaCl, 5 mM MgCl2, 1 mM TCEP; apparent molecular weight from a calibration curve

B1: N-acetylmannosamine kinase domain of UDP-GlcNAc 2-epimerase/N-acetylmannosamine kinase (GNE), residues 406-720 (domain or fragment, human, UniProt Q9Y223 406-720, looked up)
chain: TLSALAVDLGGTNLRVAIVSMKGEIVKKYTQFNPKTYEERINLILQMCVEAAAEAVKLNCRILGVGISTGGRVNPREGIVLHSTKLIQEWNSVDLRTPLSDTLHLPVWVDNDGNCAALAERKFGQGKGLENFVTLITGTGIGGGIIHQHELIHGSSFCAAELGHLVVSLDGPDCSCGSHGCIEAYASGMALQREAKKLHDEDLLLVEGMSVPKDEAVGALHLIQAAKLGNAKAQSILRTAGTALGLGVVNILHTMNPSLVILSGVLASHYIHIVKDVIRQQALSSVQDVDVVVSDLVDPALLGAASMVLDYTTRR
notes: UDP-GlcNAc 2-epimerase/N-acetylmannosamine kinase (GNE), human, kinase domain, residues 406-720; cDNA codon optimized for E. coli and synthesized; Cloned into pET28-MHL (gi:134105571); For crystallization 1:100 chymotrypsin (w/w) and 5 mM ADP were added to the protein stock, so the crystallized chain may be trimmed; residues 475-498 are not seen in the electron density; A …
stoichiometry N: 2
